US8147838B2, “Peptide” (priority 2005, dated 2012)

Key:
Conditions in all cases: percent of positive control peptide binding; peptide at 1.11×10^−5M
[1] = target: MHC class I allele A*0201 (A2) (Homo sapiens, UniProt P04439, D140Y/D185E/D98H/E176V/E277Q/G131W/G231S/I119V/I121R/I166T/I218V/L300P/L318F/N151K/N90K/P208A/P217A/Q86G/Q94H/R138H/R169H/T345S); test: iTopia peptide binding assay, A*0201
Experimental: (§1) The 9 mers were tested for Peptide Binding, Off Rate and Affinity using iTopia Epitope Discovery System in accordance with the manufacturer's instructions. Briefly, 96 well microtitre plates coated with MHC molecules representing different MHC alleles are used to identify candidate peptides. […] Determinations are performed in duplicate using an ELISA plate reader and included allele specific positive controls.
(§2) i) Peptide Binding—This assay measures the ability of individual peptides to bind to the MHC molecules under standardized optimal binding conditions. The assay is performed for all the test peptides across the selected MHC alleles. The test peptides identified as “binders” are characterized further in terms of affinity and dissociation experiments.
(§3) Following a period of binding under optimal conditions, excess antibody is removed and a measurement of total fluorescence taken (D).
(§4) The binding of the test peptides to the MHC molecules was performed at 1.11×10^−5M of peptide under optimal, standardised test conditions. A control peptide was run in parallel on the same plate and at the same concentration as the test peptides.
(§5) The level of binding is expressed as a percent of positive control peptide binding for each allele.

[2] = target: MHC class I allele A*0101 (A1) (Homo sapiens, UniProt P04439, A114D/A174V/A182V/D101N/D185E/E176A/E190D/L180R/Q94H/R68K/S129P/T187R/V100A/V91M/W191G); test: iTopia peptide binding assay, A*0101
Experimental: as §1, §2, §3, §4, §5

[3] = target: MHC class I allele A*0301 (A3) (Homo sapiens, UniProt P04439); test: iTopia peptide binding assay, A*0301
Experimental: as §1, §2, §3, §4, §5

[4] = target: MHC class I allele B*0702 (B7) (Homo sapiens, UniProt P01889); test: iTopia peptide binding assay, B*0702
Experimental: as §1, §2, §3, §4, §5

AFEHLPSLR [Peptide 69]
Peptide binding, MHC Class I Molecule A*0201 [1]: 11 % of control | Peptide binding, MHC Class I Molecule A*0101 [2]: 1 % of control | Peptide binding, MHC Class I Molecule A*0301 [3]: 11 % of control | Peptide binding, MHC Class I Molecule B*0702 [4]: 0 % of control

SEAARTVKC [Peptide 35]
Peptide binding, MHC Class I Molecule A*0201 [1]: 1 % of control | Peptide binding, MHC Class I Molecule A*0101 [2]: 5 % of control | Peptide binding, MHC Class I Molecule A*0301 [3]: 0 % of control | Peptide binding, MHC Class I Molecule B*0702 [4]: 0 % of control

ESLHLEDNA [Peptide 131]
Peptide binding, MHC Class I Molecule A*0201 [1]: 8 % of control | Peptide binding, MHC Class I Molecule A*0101 [2]: 2 % of control | Peptide binding, MHC Class I Molecule A*0301 [3]: 0 % of control | Peptide binding, MHC Class I Molecule B*0702 [4]: 0 % of control

AFSGSNASV [Peptide 81]
Peptide binding, MHC Class I Molecule A*0201 [1]: 55 % of control | Peptide binding, MHC Class I Molecule A*0101 [2]: 2 % of control | Peptide binding, MHC Class I Molecule A*0301 [3]: 2 % of control | Peptide binding, MHC Class I Molecule B*0702 [4]: 14 % of control

DNALKVLHN [Peptide 134]
Peptide binding, MHC Class I Molecule A*0201 [1]: 5 % of control | Peptide binding, MHC Class I Molecule A*0101 [2]: 1 % of control | Peptide binding, MHC Class I Molecule A*0301 [3]: 0 % of control | Peptide binding, MHC Class I Molecule B*0702 [4]: 0 % of control

INADPRLTN [Peptide 203]
Peptide binding, MHC Class I Molecule A*0201 [1]: 3 % of control | Peptide binding, MHC Class I Molecule A*0101 [2]: 0 % of control | Peptide binding, MHC Class I Molecule A*0301 [3]: 1 % of control | Peptide binding, MHC Class I Molecule B*0702 [4]: 4 % of control

ACRDHMEGY [Peptide 196]
Peptide binding, MHC Class I Molecule A*0201 [1]: 8 % of control | Peptide binding, MHC Class I Molecule A*0101 [2]: 3 % of control | Peptide binding, MHC Class I Molecule A*0301 [3]: 4 % of control | Peptide binding, MHC Class I Molecule B*0702 [4]: 7 % of control

HLESLHLED [Peptide 130]
Peptide binding, MHC Class I Molecule A*0201 [1]: 3 % of control | Peptide binding, MHC Class I Molecule A*0101 [2]: 4 % of control | Peptide binding, MHC Class I Molecule A*0301 [3]: 2 % of control | Peptide binding, MHC Class I Molecule B*0702 [4]: 2 % of control

LTCAYPEKM [Peptide 161]
Peptide binding, MHC Class I Molecule A*0201 [1]: 40 % of control | Peptide binding, MHC Class I Molecule A*0101 [2]: 16 % of control | Peptide binding, MHC Class I Molecule A*0301 [3]: 8 % of control | Peptide binding, MHC Class I Molecule B*0702 [4]: 5 % of control

VSSSSPTSS [Peptide 15]
Peptide binding, MHC Class I Molecule A*0201 [1]: 9 % of control | Peptide binding, MHC Class I Molecule A*0101 [2]: 3 % of control | Peptide binding, MHC Class I Molecule A*0301 [3]: 2 % of control | Peptide binding, MHC Class I Molecule B*0702 [4]: 2 % of control

VKCVNRNLT [Peptide 38]
Peptide binding, MHC Class I Molecule A*0201 [1]: 3 % of control | Peptide binding, MHC Class I Molecule A*0101 [2]: 6 % of control | Peptide binding, MHC Class I Molecule A*0301 [3]: 0 % of control | Peptide binding, MHC Class I Molecule B*0702 [4]: 2 % of control

VQGKDRLTC [Peptide 158]
Peptide binding, MHC Class I Molecule A*0201 [1]: 4 % of control | Peptide binding, MHC Class I Molecule A*0101 [2]: 0 % of control | Peptide binding, MHC Class I Molecule A*0301 [3]: 6 % of control | Peptide binding, MHC Class I Molecule B*0702 [4]: 6 % of control

RRPPLAELA [Peptide 57]
Peptide binding, MHC Class I Molecule A*0201 [1]: 11 % of control | Peptide binding, MHC Class I Molecule A*0101 [2]: 2 % of control | Peptide binding, MHC Class I Molecule A*0301 [3]: 2 % of control | Peptide binding, MHC Class I Molecule B*0702 [4]: 9 % of control

RTVKCVNRN [Peptide 37]
Peptide binding, MHC Class I Molecule A*0201 [1]: 12 % of control | Peptide binding, MHC Class I Molecule A*0101 [2]: 7 % of control | Peptide binding, MHC Class I Molecule A*0301 [3]: 12 % of control | Peptide binding, MHC Class I Molecule B*0702 [4]: 3 % of control

PWVCDCHMA [Peptide 148]
Peptide binding, MHC Class I Molecule A*0201 [1]: 0 % of control | Peptide binding, MHC Class I Molecule A*0101 [2]: 0 % of control | Peptide binding, MHC Class I Molecule A*0301 [3]: 0 % of control | Peptide binding, MHC Class I Molecule B*0702 [4]: 0 % of control

DCDPILPPS [Peptide 172]
Peptide binding, MHC Class I Molecule A*0201 [1]: 0 % of control | Peptide binding, MHC Class I Molecule A*0101 [2]: 0 % of control | Peptide binding, MHC Class I Molecule A*0301 [3]: 3 % of control | Peptide binding, MHC Class I Molecule B*0702 [4]: 0 % of control

NRNLTEVPT [Peptide 40]
Peptide binding, MHC Class I Molecule A*0201 [1]: 6 % of control | Peptide binding, MHC Class I Molecule A*0101 [2]: 1 % of control | Peptide binding, MHC Class I Molecule A*0301 [3]: 0 % of control | Peptide binding, MHC Class I Molecule B*0702 [4]: 5 % of control

PFAFSGSNA [Peptide 80]
Peptide binding, MHC Class I Molecule A*0201 [1]: 13 % of control | Peptide binding, MHC Class I Molecule A*0101 [2]: 0 % of control | Peptide binding, MHC Class I Molecule A*0301 [3]: 3 % of control | Peptide binding, MHC Class I Molecule B*0702 [4]: 7 % of control

TEVPTDLPA [Peptide 42]
Peptide binding, MHC Class I Molecule A*0201 [1]: 7 % of control | Peptide binding, MHC Class I Molecule A*0101 [2]: 3 % of control | Peptide binding, MHC Class I Molecule A*0301 [3]: 0 % of control | Peptide binding, MHC Class I Molecule B*0702 [4]: 0 % of control

SSSPTSSAS [Peptide 16]
Peptide binding, MHC Class I Molecule A*0201 [1]: 7 % of control | Peptide binding, MHC Class I Molecule A*0101 [2]: 4 % of control | Peptide binding, MHC Class I Molecule A*0301 [3]: 2 % of control | Peptide binding, MHC Class I Molecule B*0702 [4]: 8 % of control

LPSLRHLDL [Peptide 117]
Peptide binding, MHC Class I Molecule A*0201 [1]: 16 % of control | Peptide binding, MHC Class I Molecule A*0101 [2]: 0 % of control | Peptide binding, MHC Class I Molecule A*0301 [3]: 1 % of control | Peptide binding, MHC Class I Molecule B*0702 [4]: 96 % of control

EDERQNRSF [Peptide 94]
Peptide binding, MHC Class I Molecule A*0201 [1]: 2 % of control | Peptide binding, MHC Class I Molecule A*0101 [2]: 0 % of control | Peptide binding, MHC Class I Molecule A*0301 [3]: 4 % of control | Peptide binding, MHC Class I Molecule B*0702 [4]: 4 % of control

PPEDERQNR [Peptide 93]
Peptide binding, MHC Class I Molecule A*0201 [1]: 2 % of control | Peptide binding, MHC Class I Molecule A*0101 [2]: 0 % of control | Peptide binding, MHC Class I Molecule A*0301 [3]: 0 % of control | Peptide binding, MHC Class I Molecule B*0702 [4]: 0 % of control

AGAFEHLPS [Peptide 68]
Peptide binding, MHC Class I Molecule A*0201 [1]: 10 % of control | Peptide binding, MHC Class I Molecule A*0101 [2]: 6 % of control | Peptide binding, MHC Class I Molecule A*0301 [3]: 3 % of control | Peptide binding, MHC Class I Molecule B*0702 [4]: 7 % of control

NHIVPPEDE [Peptide 91]
Peptide binding, MHC Class I Molecule A*0201 [1]: 11 % of control | Peptide binding, MHC Class I Molecule A*0101 [2]: 6 % of control | Peptide binding, MHC Class I Molecule A*0301 [3]: 3 % of control | Peptide binding, MHC Class I Molecule B*0702 [4]: 5 % of control

PRLTNLSSN [Peptide 205]
Peptide binding, MHC Class I Molecule A*0201 [1]: 8 % of control | Peptide binding, MHC Class I Molecule A*0101 [2]: 2 % of control | Peptide binding, MHC Class I Molecule A*0301 [3]: 2 % of control | Peptide binding, MHC Class I Molecule B*0702 [4]: 11 % of control

IRVFLDNNP [Peptide 144]
Peptide binding, MHC Class I Molecule A*0201 [1]: 4 % of control | Peptide binding, MHC Class I Molecule A*0101 [2]: 0 % of control | Peptide binding, MHC Class I Molecule A*0301 [3]: 3 % of control | Peptide binding, MHC Class I Molecule B*0702 [4]: 5 % of control

DPILPPSLQ [Peptide 173]
Peptide binding, MHC Class I Molecule A*0201 [1]: 7 % of control | Peptide binding, MHC Class I Molecule A*0101 [2]: 0 % of control | Peptide binding, MHC Class I Molecule A*0301 [3]: 4 % of control | Peptide binding, MHC Class I Molecule B*0702 [4]: 0 % of control

LDNNPWVCD [Peptide 146]
Peptide binding, MHC Class I Molecule A*0201 [1]: 0 % of control | Peptide binding, MHC Class I Molecule A*0101 [2]: 0 % of control | Peptide binding, MHC Class I Molecule A*0301 [3]: 2 % of control | Peptide binding, MHC Class I Molecule B*0702 [4]: 3 % of control
